*1 amine or outer side, *2 acyl side, *3 side chain or, on linkers, in order; H or OH if unused. Side-chain parts run from the residue outwards. [ ]: non-standard residue; d: D form. The star is where a group is joined. C16 diacid = O=C(O)CCCCCCCCCCCCCCC(=O)*; γGlu = O=C(O)[C@H](CCC(=O)[*:2])N[*:1]; Palmitoyl = CCCCCCCCCCCCCCCC(=O)*; Aib = CC(C)(N)C(=O)O
T1: human glucose-dependent insulinotropic polypeptide receptor (human, UniProt P48546 22-466)
T1 sequence (looked up): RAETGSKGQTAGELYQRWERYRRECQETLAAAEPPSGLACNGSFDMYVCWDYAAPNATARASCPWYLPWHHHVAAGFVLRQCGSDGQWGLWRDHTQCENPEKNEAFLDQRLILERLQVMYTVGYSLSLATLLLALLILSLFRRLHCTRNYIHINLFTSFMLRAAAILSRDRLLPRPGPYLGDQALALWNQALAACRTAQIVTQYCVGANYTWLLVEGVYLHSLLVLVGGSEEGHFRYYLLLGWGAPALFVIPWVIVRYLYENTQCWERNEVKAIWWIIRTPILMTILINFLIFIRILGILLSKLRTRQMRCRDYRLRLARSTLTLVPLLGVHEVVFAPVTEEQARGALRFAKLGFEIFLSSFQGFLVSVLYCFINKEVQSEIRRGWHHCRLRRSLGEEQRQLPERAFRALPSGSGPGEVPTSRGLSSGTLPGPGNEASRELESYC

T2: human glucagon-like peptide-2 receptor (human, UniProt O95838 1-553)
T2 sequence (looked up): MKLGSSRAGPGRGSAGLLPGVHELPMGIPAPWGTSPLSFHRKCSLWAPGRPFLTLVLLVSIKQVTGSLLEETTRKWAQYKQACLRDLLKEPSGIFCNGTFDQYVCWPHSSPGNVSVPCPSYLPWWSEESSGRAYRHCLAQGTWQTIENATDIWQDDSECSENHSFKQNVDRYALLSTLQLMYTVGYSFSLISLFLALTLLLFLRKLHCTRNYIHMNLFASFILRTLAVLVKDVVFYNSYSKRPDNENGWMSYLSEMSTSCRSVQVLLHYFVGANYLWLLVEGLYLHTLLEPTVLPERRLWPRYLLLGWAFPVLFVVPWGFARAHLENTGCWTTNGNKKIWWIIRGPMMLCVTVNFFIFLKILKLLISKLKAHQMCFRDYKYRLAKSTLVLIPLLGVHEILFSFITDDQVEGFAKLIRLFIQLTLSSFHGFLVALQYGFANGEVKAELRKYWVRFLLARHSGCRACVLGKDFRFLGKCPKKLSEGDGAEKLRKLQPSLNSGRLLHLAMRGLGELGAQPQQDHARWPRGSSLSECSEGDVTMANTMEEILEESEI

B1: Compound no. 13 (peptide)
peptide: H-H[Aib]DGTFISDYSTILK([γGlu-Palmitoyl])NLAARDFINWLIQTKITK-OH
SMILES: CCCCCCCCCCCCCCCC(=O)N[C@@H](CCC(=O)NCCCC[C@H](NC(=O)[C@H](CC(C)C)NC(=O)[C@@H](NC(=O)[C@@H](NC(=O)[C@H](CO)NC(=O)[C@H](Cc1ccc(O)cc1)NC(=O)[C@H](CC(=O)O)NC(=O)[C@H](CO)NC(=O)[C@@H](NC(=O)[C@H](Cc1ccccc1)NC(=O)[C@@H](NC(=O)CNC(=O)[C@H](CC(=O)O)NC(=O)C(C)(C)NC(=O)[C@@H](N)Cc1c[nH]cn1)[C@@H](C)O)[C@@H](C)CC)[C@@H](C)O)[C@@H](C)CC)C(=O)N[C@@H](CC(N)=O)C(=O)N[C@@H](CC(C)C)C(=O)N[C@@H](C)C(=O)N[C@@H](C)C(=O)N[C@@H](CCCNC(=N)N)C(=O)N[C@@H](CC(=O)O)C(=O)N[C@@H](Cc1ccccc1)C(=O)N[C@H](C(=O)N[C@@H](CC(N)=O)C(=O)N[C@@H](Cc1c[nH]c2ccccc12)C(=O)N[C@@H](CC(C)C)C(=O)N[C@H](C(=O)N[C@@H](CCC(N)=O)C(=O)N[C@H](C(=O)N[C@@H](CCCCN)C(=O)N[C@H](C(=O)N[C@H](C(=O)N[C@@H](CCCCN)C(=O)O)[C@@H](C)O)[C@@H](C)CC)[C@@H](C)O)[C@@H](C)CC)[C@@H](C)CC)C(=O)O
B2: Compound no. 17 (peptide)
peptide: {C16 diacid}-H[Aib]DGTFISDYST[Aib]LDNLAARDFINWLIQTKITK-OH
SMILES: CC[C@H](C)[C@H](NC(=O)[C@H](Cc1ccccc1)NC(=O)[C@H](CC(=O)O)NC(=O)[C@H](CCCNC(=N)N)NC(=O)[C@H](C)NC(=O)[C@H](C)NC(=O)[C@H](CC(C)C)NC(=O)[C@H](CC(N)=O)NC(=O)[C@H](CC(=O)O)NC(=O)[C@H](CC(C)C)NC(=O)C(C)(C)NC(=O)[C@@H](NC(=O)[C@H](CO)NC(=O)[C@H](Cc1ccc(O)cc1)NC(=O)[C@H](CC(=O)O)NC(=O)[C@H](CO)NC(=O)[C@@H](NC(=O)[C@H](Cc1ccccc1)NC(=O)[C@@H](NC(=O)CNC(=O)[C@H](CC(=O)O)NC(=O)C(C)(C)NC(=O)[C@H](Cc1c[nH]cn1)NC(=O)CCCCCCCCCCCCCCC(=O)O)[C@@H](C)O)[C@@H](C)CC)[C@@H](C)O)C(=O)N[C@@H](CC(N)=O)C(=O)N[C@@H](Cc1c[nH]c2ccccc12)C(=O)N[C@@H](CC(C)C)C(=O)N[C@H](C(=O)N[C@@H](CCC(N)=O)C(=O)N[C@H](C(=O)N[C@@H](CCCCN)C(=O)N[C@H](C(=O)N[C@H](C(=O)N[C@@H](CCCCN)C(=O)O)[C@@H](C)O)[C@@H](C)CC)[C@@H](C)O)[C@@H](C)CC
B3: Compound no. 19 (peptide)
peptide: {C16 diacid}-H[Aib]EGTFISDYST[Aib]LDNLAARDFINWLIQTKITK-OH
SMILES: CC[C@H](C)[C@H](NC(=O)[C@H](Cc1ccccc1)NC(=O)[C@H](CC(=O)O)NC(=O)[C@H](CCCNC(=N)N)NC(=O)[C@H](C)NC(=O)[C@H](C)NC(=O)[C@H](CC(C)C)NC(=O)[C@H](CC(N)=O)NC(=O)[C@H](CC(=O)O)NC(=O)[C@H](CC(C)C)NC(=O)C(C)(C)NC(=O)[C@@H](NC(=O)[C@H](CO)NC(=O)[C@H](Cc1ccc(O)cc1)NC(=O)[C@H](CC(=O)O)NC(=O)[C@H](CO)NC(=O)[C@@H](NC(=O)[C@H](Cc1ccccc1)NC(=O)[C@@H](NC(=O)CNC(=O)[C@H](CCC(=O)O)NC(=O)C(C)(C)NC(=O)[C@H](Cc1c[nH]cn1)NC(=O)CCCCCCCCCCCCCCC(=O)O)[C@@H](C)O)[C@@H](C)CC)[C@@H](C)O)C(=O)N[C@@H](CC(N)=O)C(=O)N[C@@H](Cc1c[nH]c2ccccc12)C(=O)N[C@@H](CC(C)C)C(=O)N[C@H](C(=O)N[C@@H](CCC(N)=O)C(=O)N[C@H](C(=O)N[C@@H](CCCCN)C(=O)N[C@H](C(=O)N[C@H](C(=O)N[C@@H](CCCCN)C(=O)O)[C@@H](C)O)[C@@H](C)CC)[C@@H](C)O)[C@@H](C)CC
B4: Compound no. 10 (peptide)
peptide: H-H[Aib]DGTFK([γGlu-Palmitoyl])SDYSTILDNLAARDFINWLIQTKITK-OH
SMILES: CCCCCCCCCCCCCCCC(=O)N[C@@H](CCC(=O)NCCCC[C@H](NC(=O)[C@H](Cc1ccccc1)NC(=O)[C@@H](NC(=O)CNC(=O)[C@H](CC(=O)O)NC(=O)C(C)(C)NC(=O)[C@@H](N)Cc1c[nH]cn1)[C@@H](C)O)C(=O)N[C@@H](CO)C(=O)N[C@@H](CC(=O)O)C(=O)N[C@@H](Cc1ccc(O)cc1)C(=O)N[C@@H](CO)C(=O)N[C@H](C(=O)N[C@H](C(=O)N[C@@H](CC(C)C)C(=O)N[C@@H](CC(=O)O)C(=O)N[C@@H](CC(N)=O)C(=O)N[C@@H](CC(C)C)C(=O)N[C@@H](C)C(=O)N[C@@H](C)C(=O)N[C@@H](CCCNC(=N)N)C(=O)N[C@@H](CC(=O)O)C(=O)N[C@@H](Cc1ccccc1)C(=O)N[C@H](C(=O)N[C@@H](CC(N)=O)C(=O)N[C@@H](Cc1c[nH]c2ccccc12)C(=O)N[C@@H](CC(C)C)C(=O)N[C@H](C(=O)N[C@@H](CCC(N)=O)C(=O)N[C@H](C(=O)N[C@@H](CCCCN)C(=O)N[C@H](C(=O)N[C@H](C(=O)N[C@@H](CCCCN)C(=O)O)[C@@H](C)O)[C@@H](C)CC)[C@@H](C)O)[C@@H](C)CC)[C@@H](C)CC)[C@@H](C)CC)[C@@H](C)O)C(=O)O

molecular target: T1, human glucose-dependent insulinotropic …; test: cell-based or functional assay

**Q.** B1 was tested. Which “Efficacy GIPR” value did it give?
**A.** The value was 95%.

**Q.** With B2 as the binder, how does the “Efficacy GIPR” value read?
**A.** The value was 98%.

**Q.** HXDGTFISDYKTILDNLAARDFINWLIQTKITK (Aib at 2; K(γGlu-C16) at 11; C-terminal -OH) [Compound no. 11] was tested. Which “Efficacy GIPR” value did it give?
**A.** Its value is 115%.

**Q.** Which “Efficacy GIPR” value does the source give for B3 here?
**A.** The value was 98%.

**Q.** Which “Efficacy GIPR” value does the source give for Palmitoyl-HADGTFISDYSTILD[Aib]LAARDFINWLIQTKITKNDWKHNITQ-OH [Compound no. 16] here?
**A.** The value was 99%.

**Q.** Which “Efficacy GIPR” value does the source give for B4 here?
**A.** Its value is 102%.

**Q.** With H-H[Aib]DGTFISDYK([γGlu-Palmitoyl])TILDNLAARDFINWLIQTKGKKNDWKHNITQ-NH2 [Compound no. 14] as the binder, how does the “Efficacy GIPR” value read?
**A.** Its value is 101%.

**Q.** How did the “Efficacy GIPR” value turn out when Palmitoyl-HADGTFISDYSTILELLAARDFINWLIQTKITKNDWKHNITQ-OH [Compound no. 15] was run?
**A.** The value was 106%.

molecular target: T2, human glucagon-like peptide-2 receptor; test: cell-based or functional assay

**Q.** How did the “Efficacy GLP-2R” value turn out when B1 was run?
**A.** The value was 95%.

**Q.** B2 was tested. Which “Efficacy GLP-2R” value did it give?
**A.** Its value is 90%.

**Q.** For HXDGTFISDYKTILDNLAARDFINWLIQTKITK (Aib at 2; K(γGlu-C16) at 11; C-terminal -OH) [Compound no. 11], which “Efficacy GLP-2R” value is on record?
**A.** Its value is 87%.

**Q.** B3 was tested. Which “Efficacy GLP-2R” value did it give?
**A.** Its value is 81%.

**Q.** Palmitoyl-HADGTFISDYSTILD[Aib]LAARDFINWLIQTKITKNDWKHNITQ-OH [Compound no. 16] was tested. Which “Efficacy GLP-2R” value did it give?
**A.** The value was 64%.

**Q.** With B4 as the binder, how does the “Efficacy GLP-2R” value read?
**A.** The value was 23%.

**Q.** For H-H[Aib]DGTFISDYK([γGlu-Palmitoyl])TILDNLAARDFINWLIQTKGKKNDWKHNITQ-NH2 [Compound no. 14], which “Efficacy GLP-2R” value is on record?
**A.** The value was 114%.

**Q.** With Palmitoyl-HADGTFISDYSTILELLAARDFINWLIQTKITKNDWKHNITQ-OH [Compound no. 15] as the binder, how does the “Efficacy GLP-2R” value read?
**A.** Its value is 70%.
